B1: glmS ribozyme (parent)
chain: AUAAAAGCGCCAGAACUACAGAAAUGUAGUUGACGAGGAGGAGGUUUAUCGAAUUUUCGGCGGAUGCCUCCAAA

± gives the standard error. Fewer inactive variants are shown than the library holds. Some results are limits rather than exact numbers.

In the first data set the parent is B1. The data set is described as follows: self-cleavage kobs at 10000 uM GlcN6P; higher = faster cleavage; RNA array. The conditions noted are these: with glucosamine-6-phosphate. A digest of the protocol:
(§1)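 Glucosamine-6-phosphate (40 μM to 10 mM) in HEPES/KCl/Mg(OAc)2 buffer was flowed over sequenced MiSeq chips, and tiles were imaged over ~14 h. Barcoded ribozyme variants there had been transcribed in situ by E. coli RNA polymerase and were tracked through a hybridised Cy3 probe at 37 °C. One- or two-exponential decay fits to per-tile medians, normalised to baseline and to non-cleaving reference variants, gave kobs. kcat and KM came from weighted Michaelis–Menten fits across concentrations.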
As to A15U G41U A48U U55C, the “self-cleavage kobs at 10000 uM GlcN6P” value was less than 1e-05 s⁻¹.

As to G7C G41A C61U, the “self-cleavage kobs at 10000 uM GlcN6P” value was less than 1e-05 s⁻¹.

Regarding C10U A42C A52U, the “self-cleavage kobs at 10000 uM GlcN6P” value is less than 1e-05 s⁻¹.

As for A48C C71G, the “self-cleavage kobs at 10000 uM GlcN6P” value worked out at 2.78e-05 ± 8.9e-06 s⁻¹.

As for C8U G29A U31G, the “self-cleavage kobs at 10000 uM GlcN6P” value was less than 1e-05 s⁻¹. Same read-out and setting: the same measure for A15G A52G C67U C71G: 4.89e-05 ± 1.3e-05 s⁻¹; for G9A U65A C67A C70G: 5.56e-05 ± 1.6e-05 s⁻¹; for G59C G63C: less than 1e-05 s⁻¹. The same measure, in the same setting: the same measure for G13C G43A: less than 1e-05 s⁻¹.

For G41A U56C, the “self-cleavage kobs at 10000 uM GlcN6P” value was 3.52e-05 ± 1.7e-05 s⁻¹. As to A12G U45A C71U, the “self-cleavage kobs at 10000 uM GlcN6P” value came to 0.00191 ± 0.0004 s⁻¹. Regarding G29U G37A C71U, the “self-cleavage kobs at 10000 uM GlcN6P” value is 0.000169 ± 4e-05 s⁻¹. Turning to C16U G29C G35U A39G, the “self-cleavage kobs at 10000 uM GlcN6P” value is less than 1e-05 s⁻¹. For the variant G38A U46G U57G C58A, the “self-cleavage kobs at 10000 uM GlcN6P” value was less than 1e-05 s⁻¹.

Take G38U U56C: the “self-cleavage kobs at 10000 uM GlcN6P” value is less than 1e-05 s⁻¹. Turning to A12U G40C G41U, the “self-cleavage kobs at 10000 uM GlcN6P” value came to 6.81e-05 ± 1.9e-05 s⁻¹. As for A33C G37U C70G, the “self-cleavage kobs at 10000 uM GlcN6P” value was less than 1e-05 s⁻¹. In the case of G32U G40U C70U, the “self-cleavage kobs at 10000 uM GlcN6P” value amounted to 5.9e-05 ± 1.3e-05 s⁻¹.

In the case of A12C G13U U47A U56A, the “self-cleavage kobs at 10000 uM GlcN6P” value was 4.59e-05 ± 1.6e-05 s⁻¹. As to A15G C16U G51U, the “self-cleavage kobs at 10000 uM GlcN6P” value is less than 1e-05 s⁻¹. G59U G62A A64G: the “self-cleavage kobs at 10000 uM GlcN6P” value is less than 1e-05 s⁻¹.

On to A33U G44A G63U, for which the “self-cleavage kobs at 10000 uM GlcN6P” value was less than 1e-05 s⁻¹. For the variant G9U G41U C58A G60C, the “self-cleavage kobs at 10000 uM GlcN6P” value is less than 1e-05 s⁻¹. For A14U C19U C58G, the “self-cleavage kobs at 10000 uM GlcN6P” value amounted to 9.16e-05 ± 2.1e-05 s⁻¹. On the same count and under the same terms, the same measure for A12U C16U A42G: 0.0803 ± 0.038 s⁻¹; for C10U A33U G37C A53U U57A A64G: less than 1e-05 s⁻¹. G7A A53C G63A: the “self-cleavage kobs at 10000 uM GlcN6P” value is less than 1e-05 s⁻¹. Regarding G13A G43U U45G, the “self-cleavage kobs at 10000 uM GlcN6P” value was 6.53e-05 ± 2.3e-05 s⁻¹.

Take C10G A33G G51U: the “self-cleavage kobs at 10000 uM GlcN6P” value is less than 1e-05 s⁻¹. As to U49A U54C C67G, the “self-cleavage kobs at 10000 uM GlcN6P” value is less than 1e-05 s⁻¹. On to G32C A53G C67G, for which the “self-cleavage kobs at 10000 uM GlcN6P” value was found to be 3.72e-05 ± 1.3e-05 s⁻¹.

In the case of U31A G51U C68A, the “self-cleavage kobs at 10000 uM GlcN6P” value was less than 1e-05 s⁻¹. Consider G29U U46A U54C, for which the “self-cleavage kobs at 10000 uM GlcN6P” value was 7.78e-05 ± 2e-05 s⁻¹.

As to A39G U45C C67A, the “self-cleavage kobs at 10000 uM GlcN6P” value was found to be 0.00692 ± 0.0024 s⁻¹. Regarding G32C A36U G37A C61A C67U, the “self-cleavage kobs at 10000 uM GlcN6P” value stood at 9.54e-05 ± 1.4e-05 s⁻¹. Turning to G32C G35A G60A, the “self-cleavage kobs at 10000 uM GlcN6P” value is less than 1e-05 s⁻¹. Consider G26U U69A, for which the “self-cleavage kobs at 10000 uM GlcN6P” value was determined as 6.81e-05 ± 2.1e-05 s⁻¹. As for G32A A52G C70A, the “self-cleavage kobs at 10000 uM GlcN6P” value stood at 5.69e-05 ± 2.3e-05 s⁻¹. Consider U30A U31C A53G, for which the “self-cleavage kobs at 10000 uM GlcN6P” value was 0.00407 ± 0.0007 s⁻¹.

In the case of U30G U31G U46C U65G, the “self-cleavage kobs at 10000 uM GlcN6P” value was determined as 5.94e-05 ± 2.6e-05 s⁻¹. As to C16A C50A U65G, the “self-cleavage kobs at 10000 uM GlcN6P” value was less than 1e-05 s⁻¹. Turning to C16G G32C C70U A73C, the “self-cleavage kobs at 10000 uM GlcN6P” value came out at 0.000111 ± 1.7e-05 s⁻¹. A33U A53U G59U: the “self-cleavage kobs at 10000 uM GlcN6P” value is less than 1e-05 s⁻¹.

For C16A G51U U65A, the “self-cleavage kobs at 10000 uM GlcN6P” value is less than 1e-05 s⁻¹. A6C C10G U31A G43U C70U: the “self-cleavage kobs at 10000 uM GlcN6P” value was less than 1e-05 s⁻¹. On to A39G U57A C68U, for which the “self-cleavage kobs at 10000 uM GlcN6P” value is 0.000176 ± 4e-05 s⁻¹.

Turning to G41C U57G, the “self-cleavage kobs at 10000 uM GlcN6P” value was less than 1e-05 s⁻¹.

For G7A G29A G38A G44U A48G G66U, the “self-cleavage kobs at 10000 uM GlcN6P” value is less than 1e-05 s⁻¹. Still for that read-out and setting: to C10U U31C U57G belongs less than 1e-05 s⁻¹; to U49C G51U C70G, less than 1e-05 s⁻¹. Take A33U G62U C71A: the “self-cleavage kobs at 10000 uM GlcN6P” value is less than 1e-05 s⁻¹. G40C G59C U65G: the “self-cleavage kobs at 10000 uM GlcN6P” value is less than 1e-05 s⁻¹.

In the case of G9U G35C A42C, the “self-cleavage kobs at 10000 uM GlcN6P” value was less than 1e-05 s⁻¹. Take A12G U55A C68U: the “self-cleavage kobs at 10000 uM GlcN6P” value amounted to 0.00042 ± 0.0001 s⁻¹.

Turning to A12C G37A A39C, the “self-cleavage kobs at 10000 uM GlcN6P” value was 0.000849 ± 0.00015 s⁻¹. As to A33G G37A U69G, the “self-cleavage kobs at 10000 uM GlcN6P” value is less than 1e-05 s⁻¹.

As to A6U U31G A36U, the “self-cleavage kobs at 10000 uM GlcN6P” value is less than 1e-05 s⁻¹. As to G7C G35U G38U, the “self-cleavage kobs at 10000 uM GlcN6P” value was less than 1e-05 s⁻¹. G29A C58U: the “self-cleavage kobs at 10000 uM GlcN6P” value was 4.95e-05 ± 8.6e-06 s⁻¹. For G29A C58G, the “self-cleavage kobs at 10000 uM GlcN6P” value worked out at 6.15e-05 ± 1.1e-05 s⁻¹. Same read-out and setting: to C8U C16A A39C C58U A64G C67G belongs less than 1e-05 s⁻¹. With A14C A52G C61A, the “self-cleavage kobs at 10000 uM GlcN6P” value is less than 1e-05 s⁻¹. On to C16U G44A U54G, for which the “self-cleavage kobs at 10000 uM GlcN6P” value turned out to be 0.000358 ± 7.9e-05 s⁻¹.

Take A33C G35A U46G C50U U56G C71A: the “self-cleavage kobs at 10000 uM GlcN6P” value is less than 1e-05 s⁻¹. In the case of G13C U49G G59U, the “self-cleavage kobs at 10000 uM GlcN6P” value was less than 1e-05 s⁻¹. As for A53G G63C, the “self-cleavage kobs at 10000 uM GlcN6P” value is less than 1e-05 s⁻¹. For the variant G35U U47A C61U, the “self-cleavage kobs at 10000 uM GlcN6P” value was less than 1e-05 s⁻¹. Take A64G C70A: the “self-cleavage kobs at 10000 uM GlcN6P” value was 3.24e-05 ± 9.8e-06 s⁻¹.

Variants of B1 are the subject of a further data set. Description: self-cleavage kobs at 2500 uM GlcN6P; higher = faster cleavage; RNA array. The conditions noted are these: with glucosamine-6-phosphate. Put shortly: as §1
For the variant A12C A15U G62A, the “self-cleavage kobs at 2500 uM GlcN6P” value is less than 1e-05 s⁻¹.

For the variant G13C A33C U47C A64U C70A, the “self-cleavage kobs at 2500 uM GlcN6P” value is less than 1e-05 s⁻¹. In the case of G41C G44U U54A C68A C71A, the “self-cleavage kobs at 2500 uM GlcN6P” value was less than 1e-05 s⁻¹. As to U31G G38U A42U C67U, the “self-cleavage kobs at 2500 uM GlcN6P” value is less than 1e-05 s⁻¹.

In the case of C16A G43A C58U, the “self-cleavage kobs at 2500 uM GlcN6P” value was less than 1e-05 s⁻¹. On to A12U A39U A48U, for which the “self-cleavage kobs at 2500 uM GlcN6P” value was found to be 0.000147 ± 2.7e-05 s⁻¹. The same measure, in the same setting: the same measure for C11U A14G U49C: less than 1e-05 s⁻¹; for C10G A33G G51U: less than 1e-05 s⁻¹; for G35C G44U A52G U54A C67U: less than 1e-05 s⁻¹.

Regarding C10U G13A A33U, the “self-cleavage kobs at 2500 uM GlcN6P” value was less than 1e-05 s⁻¹. With G40U G66A C70U, the “self-cleavage kobs at 2500 uM GlcN6P” value was 0.0016 ± 0.00053 s⁻¹. Same read-out and setting: to A15U C50U U54C G59C belongs less than 1e-05 s⁻¹; to C10U G29U C61A C67G, 0.000121 ± 2.9e-05 s⁻¹. As for G41C G51U U69C, the “self-cleavage kobs at 2500 uM GlcN6P” value was less than 1e-05 s⁻¹. With A6U U31G A36U, the “self-cleavage kobs at 2500 uM GlcN6P” value is less than 1e-05 s⁻¹. With C16G A36U G60A, the “self-cleavage kobs at 2500 uM GlcN6P” value was less than 1e-05 s⁻¹. As for G7A C8A U56G, the “self-cleavage kobs at 2500 uM GlcN6P” value is less than 1e-05 s⁻¹.

The values are drawn from the supplement of paper PMC7125110.
